Results taken from patent US20080131434A1 (ONCOMED PHARMACEUTICALS, published 2008).

Tests used:
EGF2-5 = target: T1, EGF2-5; assay: Western blot of Fc fusion proteins of the antigen deletion series, non-reduced SDS-PAGE
T1 construct: member of the EGF 1-5 deletion series; also called NOTCH1 EGF 2-5 Fc fusion protein (deletion series)
T1 chain: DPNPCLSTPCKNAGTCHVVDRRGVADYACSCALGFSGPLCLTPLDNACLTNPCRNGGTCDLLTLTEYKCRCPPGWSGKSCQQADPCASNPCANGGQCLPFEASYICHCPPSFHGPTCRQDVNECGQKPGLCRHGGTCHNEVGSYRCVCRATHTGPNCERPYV
Source text: (§1) FIG. 1: Epitope mapping of anti-NOTCH1 monoclonal antibodies that bind to non-ligand binding domains.
(§2) To identify antibodies that recognize specific non-ligand binding regions of the NOTCH receptor extracellular domains, epitope mapping was preformed. In certain embodiments, mammalian expression plasmid vectors comprising a CMV promoter upstream of polynucleotides that encode fragments of the extracellular NOTCH1 domain as Fc fusion proteins were generated using standard recombinant DNA technology. These fusion proteins included a series of NOTCH1 fragments containing a nested series of deletions of EGF domains 1-5 or 10-15. Recombinant proteins were then expressed in cultured mammalian cells by transient transfection. Twenty-four to 48 hours following transfection, cells were harvested and cell lysate protein separated on non-reducing SDS-PAGE acrylamide gels for Western blotting using antibodies from mice immunized with NOTCH1 antigen. […] All antibody affinities were determined by BIAcore.

EGF1 = target: T2, EGF1; assay: as above
T2 construct: member of the EGF 1-5 deletion series; also called NOTCH1 EGF 1 Fc fusion protein (deletion series)
T2 chain: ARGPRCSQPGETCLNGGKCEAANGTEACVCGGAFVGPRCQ
Source text: as §1, §2

EGF1-2 = target: T3, EGF1-2; assay: as above
T3 construct: member of the EGF 1-5 deletion series; also called NOTCH1 EGF 1-2 Fc fusion protein (deletion series)
T3 chain: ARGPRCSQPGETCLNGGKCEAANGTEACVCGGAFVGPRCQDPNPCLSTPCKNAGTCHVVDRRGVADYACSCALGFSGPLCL
Source text: as §1, §2

[1] = target: T4, NOTCH1 EGF 5 Fc fusion protein (human, UniProt P46531 178-220, limits assumed); assay: Western blot, SDS-PAGE of Fc fusion proteins
T4 construct: domain: EGF 5; Member of the nested deletion series; also called EGF 5 alone; not shown: Fc
T4 chain (looked up): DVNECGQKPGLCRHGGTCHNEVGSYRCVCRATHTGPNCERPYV
Source text: as §1, §2

[2] = target: T5, NOTCH1 EGF 1-3 Fc fusion protein (human, UniProt P46531 19-139, limits assumed); assay: Western blot, SDS-PAGE of Fc fusion proteins
T5 construct: domain: EGF 1-3; Member of the nested deletion series; not shown: Fc
T5 sequence (looked up): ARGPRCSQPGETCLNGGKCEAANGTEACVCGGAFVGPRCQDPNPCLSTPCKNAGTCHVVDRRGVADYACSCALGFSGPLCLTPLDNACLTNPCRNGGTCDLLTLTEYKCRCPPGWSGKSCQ
Source text: as §1, §2

[3] = target: T6, NOTCH1 (construct used in the assay not stated) (human, UniProt P46531 19-220, limits assumed); assay: BIAcore; format and NOTCH1 construct not stated
T6 sequence (looked up): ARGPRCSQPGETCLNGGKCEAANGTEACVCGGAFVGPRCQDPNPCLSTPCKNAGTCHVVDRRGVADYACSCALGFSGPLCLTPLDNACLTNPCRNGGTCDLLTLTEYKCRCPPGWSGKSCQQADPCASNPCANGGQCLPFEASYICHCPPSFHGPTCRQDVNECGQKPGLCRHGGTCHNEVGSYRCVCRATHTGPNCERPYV

binding result (EGF2-5): binds
binding result (EGF1): no binding
binding result (EGF1-2): no binding
binding result [1]: no binding
binding result [2]: no binding
Kd [3]: 0.2 nM
B1: anti-NOTCH1 monoclonal antibody 13M57 (antibody, mouse IgG1, kappa, V domains shown)
VH: EVNLVESGGDLVQPGGSLRLSCAASGFTFSSYTMSWVRQTPEKRLEWVAYIDYGGDFTSYSDAIRGRFTISRDNAKNTLYLQMSSLKSEDTAIYYCSRRRYDAMDYWGQGTSVIVSS
VL: DIQMTQSTSSLSASLGDRVTVSCSASQAISNYLNWYQQKPDGTLKLLIYYTTNLHSGVPSRFSGSGSGTDYSLTISNLEPEDIATYYCQQYSKFPWTFGGGTKLEIKR
notes: Murine hybridoma antibody raised against NOTCH1 EGF repeats 1-5; Conjugated to Alexa Fluor 647 for some FACS work; also called 13M30
